Experimental data taken from publication PMC7723414, “Cryo-EM structure of the calcium release-activated calcium channel Orai in an open conformation” (eLife, 2020).
Each block holds one binder with its values, some of them ahead of it.

How the values were obtained:
[1] = target: T1, Orai_(H206A) (Drosophila melanogaster Orai, amino acids 133-341, with C224S, C283T and H206A) (Drosophila melanogaster, UniProt Q9U6B8, C224S | C283T | H206A); test: cryo-EM structure; Orai_(H206A) in amphipol A8-35 combined with 19B5 Fab at a molar ratio of 0.78:1 (Fab to Orai monomer), 5 mM CaCl2, 150 mM NaCl, 20 mM Tris pH 8.5, on ice 30 min; single particle analysis; conditions: both partners purified
T1 construct: construct identical to the one of Hou et al., 2018; Hexameric channel; The atomic model holds amino acids 156-305 except 217-239; also called H206A Orai; purified Orai_(H206A)

[2] = target: T2, wild-type Orai (amino acids 120-351) with N-terminal mCherry tag (Drosophila melanogaster, UniProt Q9U6B8); test: live-cell ELISA; intact HEK293 cells transfected with mCherry-tagged Orai constructs or vector; purified 19B5 IgG1 1 uM, 20 min, room temperature; HRP-conjugated secondary antibody, TMB, absorbance at 450 nm; conditions: one partner purified
T2 construct: Orai, Drosophila melanogaster, amino acids 120-351; Construct reported in Hou et al., 2018; vector modified from pNGFP-EU; also called Orai-mCherry; source: HEK293, transfected, on intact cells; not shown: mCherry, N-terminal, kept

[3] = target: the molecule itself; test: cryo-EM structure; Orai_(H206A) in amphipol A8-35 combined with 19B5 Fab at a molar ratio of 0.78:1 (Fab to Orai monomer), 5 mM CaCl2, 150 mM NaCl, 20 mM Tris pH 8.5, on ice 30 min; single particle analysis

T2 sequence (Q9U6B8 120-351): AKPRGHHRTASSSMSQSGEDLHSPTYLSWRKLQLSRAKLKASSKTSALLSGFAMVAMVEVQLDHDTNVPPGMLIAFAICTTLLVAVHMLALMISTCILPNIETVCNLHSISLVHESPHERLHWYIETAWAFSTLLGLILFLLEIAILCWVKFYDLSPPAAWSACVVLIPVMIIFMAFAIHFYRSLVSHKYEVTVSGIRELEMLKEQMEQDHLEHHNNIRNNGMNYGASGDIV

stoichiometry N [1]: ≤ 3 Fabs per channel
B1: 19B5 Fab antibody fragment (Fab, V domains shown)
VH: EVQLVESGGGLVQPKGSLKLSCAASGFTFNTYAMHWVRQAPGKGLEWVARIRTKSNNYATYYADSVKDRFTISRDDSQSMLYLQMNNLKTEDTAMYYCVRQKYGNYFDYWGQGTTLTVSS
VL: DVVMTQSQKFMSTSVGDRVSVTCKASQNVGINVAWYQQKPGQSPKALINSASYRNSGVPDRFTGGGSGTDFTLTINNVQSEDLAEYFCQQCNSYPLTFGAGTKLELR
notes: the deposited model PDB 7KR5 holds the variable domains; mouse IgG1; Fab of the mouse monoclonal IgG1 19B5; source: IgG from mouse hybridoma cells, purified by ion exchange, cleaved with papain; Fab purified (Mono S, SEC)

binding result [2]: binds
B2: monoclonal antibody 19B5 (mouse IgG1) (antibody, V domains shown)
VH: B1 VH
VL: B1 VL
notes: as the heavy chain of m2 (variable domain in PDB 7KR5), whole mouse IgG1 heavy chain; as the light chain of m2 (variable domain in PDB 7KR5); IgG1; also called 19B5 antibody; Drosophila Orai-19B5 (mouse monoclonal); source: mouse hybridoma cells, purified by ion exchange chromatography

B3: Orai_(H206A) (Drosophila melanogaster Orai, amino acids 133-341, with C224S, C283T and H206A) (domain or fragment, UniProt Q9U6B8 133-341, looked up)
chain: MSQSGEDLHSPTYLSWRKLQLSRAKLKASSKTSALLSGFAMVAMVEVQLDHDTNVPPGMLIAFAICTTLLVAVAMLALMISTCILPNIETVSNLHSISLVHESPHERLHWYIETAWAFSTLLGLILFLLEIAILCWVKFYDLSPPAAWSATVVLIPVMIIFMAFAIHFYRSLVSHKYEVTVSGIRELEMLKEQMEQDHLEHHNNIRNNG
notes: construct identical to the one of Hou et al., 2018; Hexameric channel; The atomic model holds amino acids 156-305 except 217-239; also called H206A Orai; purified Orai_(H206A)
stoichiometry N [3]: 6 subunits per channel
